Assay results reported in paper PMC7237784.

Molecular target: T1, AcFur (Acidithiobacillus caldus MTH-04) (UniProt A0A060A2G1)
T1 sequence: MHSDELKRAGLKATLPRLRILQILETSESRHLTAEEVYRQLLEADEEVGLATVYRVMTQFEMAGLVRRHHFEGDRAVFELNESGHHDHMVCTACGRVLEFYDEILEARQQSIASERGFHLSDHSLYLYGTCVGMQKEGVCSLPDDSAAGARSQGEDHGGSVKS
Test: EMSA
Settings: EMSA: 0.4 nM DNA, 0/2/4/8 nM protein, 10 mM Tris-HCl pH 8.0, 100 mM NaCl, 1 mM MnCl2, room temperature, 30 min; 5% native PAGE in 0.5x TBE, EB stain

| Sequence | binding |
| --- | --- |
| GCGTAGGACGTCCTTGATAACTGCAACTAAGTTGCATATATTCCGCACGACCACTCCGCGCGTCCCTGGGGAGCTTGACCGGTAAGTCTATTTATTGAATGATAATGATTAGCATTTATATTATTTGGAGAGATTGTCCATGCGTCGTATACCCCTCTGTGCGCTGCTGAGCACCATGCTTGCTTCCAGC (double strand) [feoP promoter] | binds |
| TTCCACCTGCTCACCTGCGCGGGCCGAGCTCAGGCGGTGGGGGGAAAGGACTTGGGTCATGACGCTCACACTCCCAACGAGTTCGTGGGGACACTATATCATAATGGTAATCATTTGCAATATCAGCCCAAGGGAGGGCCGTCCCGGCGGACGCAGCCGCCGACGCTCAGTCCAGGTCGCCGTGCCTGGGTGTAAAACGC (double strand) [feoABC operator (feoA promoter)] | binds |
